Data from patent US20200231683A1 (Bristol-Myers Squibb, published 2020).

Key:
[1] = molecular target: T1, human CXCR4 (C-X-C chemokine receptor 4) (human, UniProt P61073 1-352); test: cell-based or functional assay
[2] = molecular target: T1, human CXCR4 (C-X-C chemokine receptor 4); test: displacement of 100 pM ^125I-CXCL12 from CEM cells
Procedure: The anti-CXCR4 antibodies were serially diluted 1:3 to yield a range of concentrations from 300 nM to 137 pM. […] An irrelevant antibody of the same isotype was used as a negative control.

[3] = molecular target: T1, human CXCR4 (C-X-C chemokine receptor 4); test: flow cytometry on CEM cells (native human CXCR4), FITC anti-human IgG secondary
Procedure: The antibodies were then mixed with CEM cells and allowed to bind before being detected with a FITC-conjugated anti-human IgG secondary antibody. The cells were then analyzed by fluorescence cytometry.

T1 sequence (P61073 whole entry): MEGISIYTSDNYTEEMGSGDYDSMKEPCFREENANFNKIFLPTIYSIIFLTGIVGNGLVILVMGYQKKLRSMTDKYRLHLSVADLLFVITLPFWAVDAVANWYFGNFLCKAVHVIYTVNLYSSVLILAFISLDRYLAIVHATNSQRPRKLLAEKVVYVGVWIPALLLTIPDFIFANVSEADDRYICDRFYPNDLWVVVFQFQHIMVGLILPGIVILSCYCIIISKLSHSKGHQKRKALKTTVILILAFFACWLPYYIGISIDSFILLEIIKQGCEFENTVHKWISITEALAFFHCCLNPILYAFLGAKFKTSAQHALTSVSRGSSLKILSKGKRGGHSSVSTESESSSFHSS

B1: D1 human anti-CXCR4 monoclonal antibody (antibody, V domains shown)
VH: EVQLVQSGGGLVQPGGSLRLSCAAAGFTFSSYSMNWVRQAPGKGLEWVSYISSRSKTIYYADSVKGRFTISRDNARNSLYLQMNSLRDEDTAVYYCARDYGGQPPYYYYYGMDVWGQGTTVTVSS
VL: VIWVTQSPSSLSASVGDRVTITCRTSQGISSWLAWYQQKPEKAPELLIYAASSLQSGVPSRFSGSGSGTDFTLTISSLQPEDFATYYCQQYNSYPRTFGQGTKVEIK
EC50 for inhibition of CXCL12-induced calcium flux in CEM cells [1]: 0.57 nM | EC50 [2]: 28.6 nM | EC50 [3]: 80 nM

B2: E2 human anti-CXCR4 monoclonal antibody (antibody, V domains shown)
VH: EVQLVQSGGGLVQPGGSLRLSCAAAGFTFSSYSMNWVRQAPGKGLEWVSYISSRSRTIYYADSVKGRFTISRDNAKNSLYLQMNSLRDEDTAVYYCARDYGGQPPYHYYYGMDVWGQGTTVTVSS
VL: EIVLTQSPSSLSASVGDRVTITCRASQGISNWLAWYQQKPEKAPKSLIYAASSLQSGVPSRFSGSGSGTDFTLTISSLQPEDFATYYCQQYNSYPRTFGQGTKVEIK
EC50 [3]: 290 nM
